Assay: soluble on expression in E. coli; label from the status in PepcDB or PDB records

| Sequence | soluble on expression in E. coli |
| --- | --- |
| SGNLLKVLTCTDLEQGPNFFLDFENAQPTESEKEIYNQVNVVLKDAEGILEDLQSYRGAGHEIREAIQHPADEKLQEKAWGAVVPLVGKLKKFYEFSQRLEAALRGLLGALTSTPYSPTQHLEREQALAKQFAEILHFTLRFDELKMTNPAIQNDFSYYRRTLSRMRINNVPAEGENEVNNELANRMSLFYAEATPMLKTLSDATTKFVSENKNLPIENTTDCLSTMASVCRVMLETPEYRSRFTNEETVSFCLRVMVGVIILYDHVHPVGAFAKTSKIDMKGCIKVLKDQPPNSVEGLLNALRYTTKHLNDETTSKQIKSMLQ | soluble |
| QLHLSLPSDTQASYSSTQRKQAEIMAEGFGPGINSPFLVVADAHSVDENAEILEPLIRAQNPAPGERKQAAANAAYQYIIQKYSVTPDVKHVQIVGLSKDGLAAQLLLTPESSPEDDVTKQLIDALLIKQDEVNNATGIRSGITGLIPVQQDVTNR | not soluble |
| MGSDKIHHHHHHMPVMFQQMQYFIAIVNNHSFTQAAVDCHISQSAISQQMKELESQLGVKLLNRKGRSFEVTEAGQYFYIHSQDILADVDQLIKKTIKIEKNDEVELRVGYLRSFGTAEFLQTVSKFTQEFPKVKIKISSGTHEELYELLQTGKIDLNFSDQRRALSNEYQNEFLTASEFMVAVNNSLPVETQKIDVADLVDIPCILIIDGHQQVSEEEYYRNVLGVKSEFVIAKSYDEAQMLIASNQGYLIINQRMRTQLDKDIVKMISLVKGDRKLIQNYYAYWQANNSGYYIETFAELLKQTFA | not soluble |
| MIRNPKIYIIILNYNAYEDTLECVKSIGNIDYDNYELVLVDNSSTDDSYVKLKESLPSYNIIKSKENLGYANGNNIGIKYALENGADYICILNNDVVVEKDFLNKLVDKIIEKEDVGIVGSCICDYYRREIIQGMGAHINLYFAAARRYFKGKNYNEIEKKDIFVDYLEGACFLVKSEVFEKIGLIPENYFLFFEETEFCTRAINAGYKIMCIYESKVYHKGSATINKFGSLSYAYLNRNRVIFVRRNSKWYQKIIFAIYIFIEAFGRIVIRKEPLTLFKYILGGFKSNKESIDVIDVKSYVKLEHHHHHH | not soluble |
| MNFRLSEEHEMLRKMVREFAENEVAPTAAERDEEERFDRGIFNKMAELGLTGIPWPEEYGGIGSDYLAYVIAVEELSRVCASTGVTLSAHISLASWPIYKFGNEEQKQKYLRALATGEKLGAYALSEPGAGSDVASMKTRAVKDGDHYILNGSKVWITNGGEAEIYVVFAVTDPEKRHKGISAFIVEKGTPGFSFGKKEKKLGIRSSPTTELIFEDCRIPKENLLGQEGEGFKIAMMTLDGGRNGIAAQAVGIAQGALDAAVDYAKQRVQFGKPIIEQQGVAFKLADMATAIEAARLLTYQAAWLESNGLPYGKASAMAKLFAGDTAMKVTVEAVQIFGGNGYTKDYPVERFMRDAKITQIYEGTQEIQRLVISRMLTRN | soluble |
| MGHHHHHHSHMAVASTSTSDGMLTLDLIQEEDPSPEEPTSCAESFRVDLDKSVAQLAGSRRRADSDRIQPSADRASSLSRPWEKTDKGATYTPQAPKKLTPTEKGRCASLEEILSQRDAASARTLQLRAEEPPTPALPNPGQLSRIQDLVARKLEETQELLAEVQGLGDGKRKAKDPPRSPPDSESEQLLLETERLLGEASSNWSQAKRVLQEVRELRDLYRQMDLQTPDSHLRQTTPHSQYRKSLM | not soluble |
| MLEFSSEVSLLDSVKNILLEYGLRFQEPQIEKVDKYIEELLGVPYNLTAHRDLDSAVHKNVVEILLPLKEELKGTLLDVGSGNGVPGLILAIFFSKLKVVLLDSREKSVNFLRGVIEKLDLENVSVVKERAENFSKERREEFDYVTARAVARLNVLVEICTPALKTGGKLLFYKGPSYIEELKEAQRAMKELKVELEKVREYSLKTGERRALLILRKYESSPEKYPRRVGVPFKRPLL | soluble |
| MGKYKFIEERVETMSSSELKIFLNILKSRSKELMSTLESVRGIKDLEAVCKSTQKLNNRVSEFDGGSFLILVVGPVKSGKSTLVNLIAHAHVSPTHFLECTVRPSIISKGQEESITRIFSVADKARKVEQFDSVIDSLRGFEKLENISEISIEKKELNDANLEECVSLALEESVINTDHTLVTSITTSGGELLKDNIFLVDMPGLDGGYVNLDNPIYETISQRADFVIFVQSSNSAISKVSNRFLKLLQENNPKVPVCLLHNVFEAAYWHSEEEKQAVIKAQVEFAENEMGRRNFQLKENIYSLNLGKVADAASYEGMEDLQEEAAKFQRFEKDLYGKVISNSTDIRLRSVIGRTLNQLEKLDNLVGESIGQQEAIDIEYQAAATSFDELLRQASELSYDGSDFRKMVQVYMDDDLKEFTEIVREYYDSGCNSAFAGGAKGKDATRSLVTKFMTDSSAAIKSKFLDSHEHSLARQYLRKLSNLKDDVAFIEKMNTFLKQKGCAPFDSVPQVTDFPVVDFDLQGAFDVKNINNPTVPHIGIPNPFGTYSTMEIQSFLRKAMECITGIDHTHTGKTIKGYLQLTVGKSIYKAANDLYDQYVPVRKQSIIDFLEQQKTMYLNALVSDKEEFDRKDALLRSINAQVQSFKDSIR | not soluble |
| MGSDKIHHHHHHMSRVNELVGTLFTGGRKPDDLYGRVFVVSAFGGITNLLLEHKKTGEPGVYARFADAESDHGWHEALSRVGDEMRKAHEAVLENAGDVAQADAFVSERIEGARNCLIDLQRLCSYGHFRLAEHMLQIRELLSGLGEAHSAYVTALLLQRAGVNARFVDLSGWRDEGDVTLEERISSALNDVDPATEMPIVTGYAQCAEGLMREFDRGYSEVTFSCLAALTGASEAIIHKEFHLSSADPKLVGEGVAQKLGHTNYDVADQMSNMGMEAIHPKAAKTLRQADVPLRVTNAFEPEDPGTLIDDKPADQPAVEMITGLDIIALELFEQDMVGVKGYDAAILEVLTRHDVRIVSKTSNANTITHYLDTSLTVLKRVEKDLAKIYPNADISARLLSMASAIGRDLKGLSVLTRGLQAIADVGLASLGASQGPRNVDVQFIVEREDLKPVISALHKVLVEGRPAKQEKPIKAAA | not soluble |
| MNSTNSGPPDSGSATGVVPTPDEIASLLQVEHLLDQRWPETRIDPSLTRISALMDLLGSPQRSYPSIHIAGTNGKTSVARMVDALVTALHRRTGRTTSPHLQSPVERISIDGKPISPAQYVATYREIEPLVALIDQQSQASAGKGGPAMSKFEVLTAMAFAAFADAPVDVAVVEVGMGGRWDATNVINAPVAVITPISIDHVDYLGADIAGIAGEKAGIITRAPDGSPDTVAVIGRQVPKVMEVLLAESVRADASVAREDSEFAVLRRQIAVGGQVLQLQGLGGVYSDIYLPLHGEHQAHNAVLALASVEAFFGAGAQRQLDGDAVRAGFAAVTSPGRLERMRSAPTVFIDAAHNPAGASALAQTLAHEFDFRFLVGVLSVLGDKDVDGILAALEPVFDSVVVTHNGSPRALDVEALALAAGERFGPDRVRTAENLRDAIDVATSLVDDAAADPDVAGDAFSRTGIVITGSVVTAGAARTLFGRDPQ | soluble |
| MGSDKIHHHHHHMAEDLTPEGGDRAPSKDGSVPAYAGRQSADPGWEWGKIRGDFWKHRNEKPLYSIDGSNVDKYAEQLTPGQVQLVKQKKGYRMDVYPSHRECQASDFVAQNSKANLTGAKLDSTGEQLQTAILPGVPFPQPKNGAEAMLNYLMRYRGEGIEWPSVVTTVSPRPGSSDWIDAISTATQYFPASKQGKRTPHDVDQLSSATFFKMESPPALAGQAFVQRQFFNKDPETFYYFPGQRRVRRMPAYTHDAPAIGFENQYLIDEANMFFGAIDRFDWKLAGKKEMIVPYNAFGMYKFNDKLHDVVTPDGIAAANRRYEMHRVWVVEATLKPSARHVASKKVFYLDEDSWLALVANDYDAQGKLWRVRESYPIPVWELGGACDNEPFAQYDLINGRYVTDQSTIGQGKDIRWYEKTNDPRFKPDFFTSESLRSVSER | not soluble |
| MIQTKQIGLQEVLSAAIKRATDEKILVSFVKQIDWMDPLLFYAAGKRISFENRCYFADPAQHVIFAGIGSVFTIATASRKRFQTARDEWDKVKEKAFVQREKYEFGTGPLLFGGFSFDQEKEKTDLWKEFDDTTFSLPTFLLTVKNEKAWLTMNTFVSATDCAETLYNEIVSLEEKIFEESKCALEGSKLTVTSKVEVDPKGWMKAIEKVQDEMKQGNVQKVVLARELKVEMDHHIDSALVLEALRIGQPDCYVFSFDYKGACFLGATPERLIRKEDEKFTSMCLAGSTSHGQSIEESKRNSNALLHDEKNLAEHGYVVNMIRSVLNEHCEFVNIPESPGLLTTKNLIHLYTPVEAKGDASLLTMVEELHPTPALGGTPRLEAMKLIRDVELLDRGLYGAPIGWIDDEGNGEFAVALRCGLLNGEKASLFAGCGIVIDSVPQLEYEETSLKFRPMLGALEELMK | not soluble |
| MSLQKKAMIIYNPAAGKNKFRKLLPDAEKILTEADFEVTLVPSTPAPKSTTFIAKQAAEAGFDVVIAAGGDGTVNEVVNGLMQVDTPPKLGVLPVGTTNDYARALNFAKNPLEALRIIAKQETIRVDIGKANETEFFINNAAGGKITEITYAVKESMKSKWGRLAYLFSGLTVLPKLSPVYVEIAYNDKIFKGEILLFFVNKSNSVGGMETLCPPAELNSGMFELLILKKVSPKTLFQLFASIKKGTHLSSPHVIHARTNKVTINSEADLNVSYDGVYGGKAPYTLEVIPEALEVFADTNRISSRLRGEGHHHHHH | soluble |
| MTEPIKEIAAKRSVEAVYTGGTVRWSANGQKLFSTCTNVVKVIDLADNTASYTIGDPEDELRITCTAVDKNRNRLLVAYNNQIIREYSIPLDPSTTKPELARTWKTIHTAPILVMEFNEEGHLLATGSADHIVKVWNLTEQQCTHTLKGPSVVSAILFGKHEKLVVGYIEGQLNLYNIMRGAPKKLVNTWKSHNSHITALLQVPDSRVVVALSRDQTMSIHETETQETLRVLPLYESIEGGAIGHNGNLFTVGEEGVVKEFVIETAKLVRKKRIASSNLDHLAYDVVSNRFLAISAEQNLIILDFENLKIARQIVGFHDEIYSCCLLGKDESHMAVASNTSEIRLYNTKTLDCQLIRGHTESVLSVVSPTWDTSLLASCSKDNSIIFWRLVTSPENDSCSTLVPVAAATGHANTVTALAISNTGRAPFLASVSTDCTIKLWGLGVSTKLKEVKIDAEKDFVEQLPKLTCSSTMVAHGKDVNCVDISESDALIATGGMDKLVKLWQVDTHKMQLGIAGTLSGHRRGVGDVKFAKNSHKLASCSGDMTIKIWNISEKSCLQTISGHSCAVFRVIFARNDSQLISADSAGIIKIWTIKTADCECSIDAHTDKIWSLSKNHNESEFVTAGTDGRIVVWKDVTEEKQKAEDNKRREAIEQDQTLTNLLSQKRYSEALVFALTLAKPFCAFKVINALMAEETPEELGSAIRRLDTRQIEILLQFTVKWNTNSRTSSVAQRVLYEIVHIVDPEELVSMPGAYGYIESFLPYTQRHMDRLDRAKQDVSLFDFVWRQMRSSV | not soluble |
| MFPYYQRQCPTGSVPYTIKAGDTLAAIARIYGTTVQDIINANPDIDPYYLRVGQQICIPLTMQIYPSCPTTNYYVVRPEDTLESIAAYFNITPQQLLYSNYGIDPTDLYVDQILCIPVAPPPVTVNVNVAERTLTVYRDGRIYRTYRIALENPASPIPRGTFTVLNKQVDPGVEMGARWIGLSEAGFGIHGTNTPEFIDVVSTGNSIVMSNEDVSELFNLVPVGTIVTIS | soluble |
| MGSDKIHHHHHHMRIILYTGKGGVGKTSISAATALQSAKQGLKTLVMSTDPAHSLGDSFGIKLSSEPLEIRENLWAQEINTIYEMEKGWGKLQKYITLLFTSKAADDITTEELTMFPGMEDLISLLRVLDYYKQNTYDVIIIDCAPTGETLAMLSFPDMLGWWMEKLFPIKRKVLKVVRPVAQPLLGVPLPTDDIMDELTNTLEQLGEMRDILSNRDVTSIRIVVNPEKMVIKEAQRSFTYLNLYDYNVDAIMINRVIPNTVIDPYFQAWKDTQKKYKTLIQNSFDPLPIYEAPMFEQEVVGLPMLERVGDALFKEDYCPTEVKFNGRTQYVKKDGDEYIFVLSIPFSNKSELALNQKGDELIIRAGSVKRNITLPKTLTHLSIQGAKFEDDVLNIRFGGVVHA | not soluble |
